In patent US20260209363A1 (Chugai, published 2026):

Legend:
Mouse MOG (R&D system) = molecular target: T1, Mouse MOG (R&D system) (mouse, UniProt Q61885 29-156, limits assumed); experiment: plasma MOG clearance in mice after IC17 0.2 mg/kg IV and MOG 0.021 mg/kg IV
T1 construct: also called mouse soluble MOG; soluble MOG
T1 sequence (looked up): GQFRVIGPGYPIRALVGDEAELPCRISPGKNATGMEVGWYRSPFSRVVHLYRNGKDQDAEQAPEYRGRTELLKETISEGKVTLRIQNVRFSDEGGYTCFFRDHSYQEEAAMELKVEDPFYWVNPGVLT

[1] = molecular target: T2, IL6R on IL6R-CHO cells (CHO cells forced to express IL6R) (UniProt P08887 20-468, limits assumed); experiment: flow cytometry on IL6R-CHO cells, 4 degrees C 60 min, detection with Alexa Fluor 647 anti-dGK antibody; (a) MSA-free medium, (b) medium with 50 mg/mL MSA, (c) mouse plasma [a), (b), (c]
T2 construct: whole, on cells; also called membrane-type IL6R; IL6R on the cell membrane
T2 sequence (looked up): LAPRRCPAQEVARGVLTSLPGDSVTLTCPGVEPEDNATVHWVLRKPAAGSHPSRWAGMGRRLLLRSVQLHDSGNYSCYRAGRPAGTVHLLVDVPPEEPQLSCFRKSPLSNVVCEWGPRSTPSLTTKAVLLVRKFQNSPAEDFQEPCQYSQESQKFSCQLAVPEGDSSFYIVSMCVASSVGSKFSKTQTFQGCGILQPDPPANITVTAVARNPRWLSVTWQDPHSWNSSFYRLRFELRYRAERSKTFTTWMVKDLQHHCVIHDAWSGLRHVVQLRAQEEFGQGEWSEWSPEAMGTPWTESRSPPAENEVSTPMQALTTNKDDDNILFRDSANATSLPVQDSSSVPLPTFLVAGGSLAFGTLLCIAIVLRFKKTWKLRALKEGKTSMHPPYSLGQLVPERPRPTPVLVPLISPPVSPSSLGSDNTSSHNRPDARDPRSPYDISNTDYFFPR
Procedure: Binding ability of albumin switch molecules against the membrane-type antigens were verified. Specifically, the antibodies (10 micro g/mL) indicated below were incubated with IL6R-CHO cells (Chiome Bioscience, 2×10⁵ cells/well) in mouse serum albumin (MSA)-free CHO-S-SFM II medium (Thermo Fisher Scientific), 50 mg/mL Recombinant MSA (Albumin Bioscience)-containing medium, or mouse plasma (6-week-old male C57BL/6J mouse) at 4 degrees C. for 60 minutes. Antibodies used for the reaction were IC17, H54//IC17, and ABD094(H/L)-H54//IC17. After the reaction, the cells were washed three times with PBS(−). Addition of Alexa Fluor 647-labeled anti-dGK antibody (10 micro g/mL) was followed by incubation at 4 degrees C. for 30 minutes. Lastly, the cells were suspended in PBS(−) and analyzed by FACSCantoII (BD).

human soluble IL-6R = molecular target: T3, human soluble IL-6R (human, UniProt P08887 20-357, limits assumed); experiment: Gyrolab xP complex assay in C57BL/6J mouse plasma: antibody 0.15 µg/mL and human soluble IL-6R 0.15 µg/mL (final), capture by biotinylated anti-human IL-6R antibody, detection with AF647-anti-delta GK; signal as % of H54//IC17
T3 construct: Soluble form; also called sIL6R; Human IL-6R
T3 sequence (looked up): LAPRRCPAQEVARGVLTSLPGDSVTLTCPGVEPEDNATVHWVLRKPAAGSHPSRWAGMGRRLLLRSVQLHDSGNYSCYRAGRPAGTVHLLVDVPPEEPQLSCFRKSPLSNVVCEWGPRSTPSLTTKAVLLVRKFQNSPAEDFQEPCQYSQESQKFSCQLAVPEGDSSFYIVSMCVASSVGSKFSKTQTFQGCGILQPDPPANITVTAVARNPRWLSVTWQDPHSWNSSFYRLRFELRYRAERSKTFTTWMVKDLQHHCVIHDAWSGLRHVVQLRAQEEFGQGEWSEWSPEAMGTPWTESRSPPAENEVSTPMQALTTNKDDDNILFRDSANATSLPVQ
Procedure: First, to bind the albumin-binding portion to albumin in the plasma, the anti-human IL-6R antibodies (albumin switch molecules) indicated in Example 2 were diluted to 0.6 micro g/mL using C57BL/6J mouse plasma, and then incubated at room temperature for one hour. Next, for binding of the anti-human IL-6R antibody to the target antigen, one equivalent of human soluble IL-6R diluted to 0.6 micro g/mL in mouse plasma was added to the antibody solutions, and then the solutions were incubated at room temperature for one hour.
To detect the antigen-antibody complexes, first, the anti-delta GK antibody (AF647-anti-delta GK) was labeled using an Alexa flour 647 labeling kit (A20186, Thermo Fisher Scientific) according to the attached protocols. […]
Measurement of antigen-antibody complexes was performed using Gyrolab xP. […] The amount of the captured complex was detected by the fluorescence signal of AF647 (Detect PMT 25%). The fluorescence signal of AF647 was analyzed by Gyro Evaluator (version 3.6.2.30, Gyros Protein Technologies).

[2] = molecular target: T4, MOG on mouse oligodendrocytes (mouse, UniProt Q61885 29-246); experiment: flow cytometry on mouse brain cell suspension, O4-positive/CD45-negative oligodendrocyte fraction, 4 degrees C 60 min, detection with Alexa Fluor 647 anti-delta GK antibody; (a) MSA-free DPBS, (b) DPBS with 50 mg/mL MSA, (c) mouse plasma [a), (b), (c]
T4 construct: whole, on cells; also called MOG on the cell membrane; MOG expressed by cells in the brain
T4 sequence (looked up): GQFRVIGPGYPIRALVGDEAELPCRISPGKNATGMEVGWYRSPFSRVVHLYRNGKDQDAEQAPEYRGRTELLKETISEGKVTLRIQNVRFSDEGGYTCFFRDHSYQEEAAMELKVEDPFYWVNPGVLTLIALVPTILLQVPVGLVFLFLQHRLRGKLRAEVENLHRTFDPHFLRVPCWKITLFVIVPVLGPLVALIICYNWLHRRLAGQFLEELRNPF
Procedure: The binding ability of albumin switch molecules against the membrane-type antigens were examined. Specifically, the antibodies (10 micro g/mL) indicated below were incubated with mouse brain cell suspension (2×10⁵ cells/well), in mouse serum albumin (MSA)-free DPBS (Thermo Fisher Scientific), DPBS containing Recombinant MSA (Albumin Bioscience) at 50 mg/mL, or mouse plasma (6 weeks old, male C57BL/6J mouse) at 4 degrees C. for 60 minutes. The mouse brain cell suspension was prepared from mouse brain using Adult Brain Dissociation Kit (Miltenyi Biotec) and gentleMACS (Miltenyi Biotec). Antibodies used for the reaction were IC17, MOG//IC17, and ABD094(H/L)-MOG//IC17. After the reaction, the cells were washed once with DPBS. […] Lastly, the cells were suspended in DPBS and analyzed by FACSCantoII (BD). The fluorescence intensities of Alexa Fluor 647 in the MOG-expressing oligodendrocyte O4-positive/CD45-negative fractions were measured (Schroeter, C. B. et al., One Brain-All Cells: A Comprehensive Protocol to Isolate All Principal CNS-Resident Cell Types from Brain and Spinal Cord of Adult Healthy and EAE Mice. Cells 2021, 10(3), 651).

B1: IC17 (antibody, human IgG1, kappa, V domains shown)
VH: QVQLQQSGPQLVRPGASVKISCKASGYSFTSYWMHWVNQRPGQGLEWIGMIDPSYSETRLNQKFKDKATLTVDKSSSTAYMQLSSPTSEDSAVYYCALYGNYFDYWGQGTTLTVSS
VL: DIQMTQSSSSFSVSLGDRVTITCKASEDIYNRLAWYQQKPGNAPRLLISGATSLETGVPSRFSGSGSGKDYTLSITSLQTEDVATYYCQQYWSTPYTFGGGTKLEVKR
notes: also called Anti-KLH antibody
binding result (Mouse MOG (R&D system)): no binding | binding result [1]: no binding (tested: 10 µg/mL) | binding result (human soluble IL-6R): no binding (tested: 0.15 µg/mL) | binding result [2]: no binding (tested: 10 µg/mL)
